Reference: US20110171681

Key:
[1] = target: cell surface beta1,4-galactosyltransferase I (GalT), mouse, endogenous (UniProt P15535)
[2] = target: cyclin-dependent kinase inhibitor p57(kip2) (UniProt P49919)

His tagged GTAP
in vitro ubiquitination of immunoprecipitated GalT [1]: Surprisingly GTAP had no effect on immunoprecipitated GalT in an in vitro ubiquitin system | in vitro ubiquitination of p57 with biotinylated ubiquitin [2]: GTAP increased the ubiquitination of p57 only in the presence of E1
